Data from patent US20260132208A1 (DOMAIN THERAPEUTICS, published 2026).
“And” between values parts separate entries of the source, which are not always exact repeats. Identical values can stand only once.

Key:
human CCR8 [1] = biological target: T1, human CCR8 (human, UniProt P51685 1-355); assay: cell-based or functional assay
human CCR8 [2] = biological target: T1, human CCR8; assay: cell-based or functional assay; remark: listed apart in the source
human CCR8 [3] = biological target: T1, human CCR8; assay: cell-based or functional assay; remark: listed apart in the source
human CCR8 [4] = biological target: T1, human CCR8; assay: cell-based or functional assay; remark: listed apart in the source
pm3 = biological target: T2, pm3 (Y17 sulfated; Y15 and Y16 not sulfated); assay: ELISA on coated peptide [cont.]
T2 construct: also called sulfated CCR8 N-terminal peptide pm3
Method: (§1) The specific binding properties of antibodies were evaluated by ELISA with coated CCR8 related peptides (500 ng/ml) in carbonate/bicarbonate buffer. Different peptides were used as described in Table 1 (see Example 1). Each anti-CCR8 mAb was tested at 1 μg/mL then diluted at 1/10. After an incubation at room temperature during 90 min, unbound mAbs were removed by washings. […] After washings, 3,3′,5,5′-tetramethylbenzidine (TMB) (Interchim, Montluçon, France) was added for 15 min. Then the optical density (OD) was determined by using a multiplate reader (Tecan, Lyon, France) and correlated with mAb reactivity on the panel of coated peptides.

pm5 = biological target: T3, pm5 (Y15 and Y17 sulfated; Y16 not sulfated); assay: ELISA on coated peptide [cont.]
T3 construct: also called sulfated CCR8 N-terminal peptide pm5
Method: as §1

pm6 = biological target: T4, pm6 (Y16 and Y17 sulfated; Y15 not sulfated); assay: ELISA on coated peptide [cont.]
T4 construct: also called sulfated CCR8 N-terminal peptide pm6
Method: as §1

pm8 = biological target: T5, pm8 (Y15, Y16 and Y17 sulfated); assay: ELISA on coated peptide [cont.]
T5 construct: also called sulfated CCR8 N-terminal peptide pm8
Method: as §1

human CCR8 [5] = biological target: T1, human CCR8; assay: flow cytometry, hCCR8-transfected CHO-K1 cells
Method: Briefly, 1.10⁵ cells per well in a 96 well plate were incubated with a dilution of unconjugated anti-CCR8 mAb at 10 μg/mL then diluted at 1/3.33, 4 dilution points (during 30 min at 4° C.). In human activated T cells model, prior to mAb incubation, cells were first incubated with 200 nM of hCCL1 (R&D Systems, Minneapolis, MN, USA) or buffer PBS (Invitrogen by Thermofisher Scientific, Illkirch-Graffenstaden, France) supplemented by 2% Fetal Bovine Serum (Invitrogen by Thermofisher Scientific, Illkirch-Graffenstaden, France) and 2 mM EDTA (Invitrogen by Thermofisher Scientific, Illkirch-Graffenstaden, France) during 1 hour at 4° C. To determine EC50 value, 8 concentrations of anti-CCR8 mAb were tested. Unbound antibodies were washed away with PBS (Invitrogen by Thermofisher Scientific, Illkirch-Graffenstaden, France) supplemented by 2% Fetal Bovine Serum (Invitrogen by Thermofisher Scientific, Illkirch-Graffenstaden, France) and 2 mM EDTA (Invitrogen by Thermofisher Scientific, Illkirch-Graffenstaden, France). Subsequently, cells are centrifuged (5 min at 400 g) and bound antibody is detected with F(ab′)2-Goat anti-Mouse IgG (H+L) Cross-Adsorbed Secondary Antibody, Alexa Fluor 488 (dilution 1/500) (Invitrogen by Thermofisher Scientific, Illkirch-Graffenstaden, France) or with F(ab′)₂-Goat anti-Human IgG Fc Secondary Antibody, PE (Invitrogen by Thermofisher Scientific, Illkirch-Graffenstaden, France) (dilution 1/1000) at 4° C. for 30 min. Detection reagent is washed away and cells are centrifuged (5 min at 400 g) and resuspended in 30 μL PBS. Bound detection antibody is quantified on a MacsQuant16 (Miltenyi, Gladbach, Germany) (B1 or B2 channel, 5000 events per acquisition). During the experiment, the respective isotype mAb controls (mouse IgG1, mouse IgG2a, mouse IgG2b, mouse IgG3 or human IgG1) (Biolegend, Amsterdam, The Netherlands) are included to exclude any unspecific binding events. EC50 values were determined via nonlinear fit “log (agonist) vs.response—Variable slope (four parameters)” function of Graphpad prism. EC50 values were not constantly determined in the same experiments.

human CCR8 [6] = biological target: T1, human CCR8; assay: flow cytometry, inhibition of hCCL1-AF647 (10 nM) binding to hCCR8-CHO cells
Method: The hCCR8 transfected CHO cell line was dispatched at a density of 1.105 per well in a 96-well plate. Cells were incubated for 30 min at 4° C. with or without anti-CCR8 mAb tested at 10 μg/mL then diluted at 1/3. Unbound antibodies were washed away with PBS (Gibco, Villebon-sur-yvette, France) supplemented by 2% Fetal Bovine Serum (Invitrogen by Thermofisher Scientific, Illkirch-Graffenstaden, France) and 2 mM EDTA. […] After washing unbound ligands, CCL1 bound detection is quantified on a MacsQuant16 (Miltenyi, Gladbach, Germany) (R1 channel, 5 000 events per acquisition).
For IC₅₀ determination, a concentration response curve is performed using 8 concentrations of mAb. Curves are fitted and IC₅₀ of CCL1 binding blocking activity is calculated using the sigmoidal dose-response (variable slope) model on GraphPad Prism 9 (GraphPad Software, San Diego, CA, USA).

T3 sequence (peptide, as listed by the source): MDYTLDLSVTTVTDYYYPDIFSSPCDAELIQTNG
T5 sequence (peptide, as listed by the source): as above
T2 sequence (peptide, as listed by the source): as above
T4 sequence (peptide, as listed by the source): as above

Binder | IC50 of CCL1-induced hCCR8 Gi2 signaling (BRET, HEK-293) (human CCR8 [1]) | residual hCCL1 (100 nM) Gi2 response, protocol #2, mAb 0.08 µg/mL (human CCR8 [2]) [%] | residual hCCL1 (100 nM) Gi2 response, protocol #2, mAb 0.4 µg/mL (human CCR8 [2]) [%] | residual hCCL1 (100 nM) Gi2 response, protocol #2, mAb 10 µg/mL (human CCR8 [2]) [%] | residual hCCL1 (100 nM) Gi2 response, protocol #3, mAb 0.05 µg/mL (human CCR8 [2]) [%] | residual hCCL1 (100 nM) Gi2 response, protocol #3, mAb 0.5 µg/mL (human CCR8 [2]) [%] | residual hCCL1 (100 nM) Gi2 response, protocol #3, mAb 5 µg/mL (human CCR8 [2]) [%] | extrapolated top plateau of hCCL1 curve with 5 µg/mL mAb, protocol #3 (human CCR8 [3]) | IC50 of CCL1-induced hCCR8 Gi2 signaling (BRET), pH 6.5 (human CCR8 [4]) | IC50 of CCL1-induced hCCR8 Gi2 signaling (BRET), pH 7.4 (human CCR8 [4]) | binding result (pm3) | binding result (pm5) | binding result (pm6) | binding result (pm8) | % positive cells (human CCR8 [5]) [%] | MFI fold change to isotype ctrl (human CCR8 [5]) [fold] | IC50 (human CCR8 [6])
anti-CCR8 mAb 1-2 (antibody, V domains shown, Murine hybridoma mAb) VH: EVQLVESGGGLVQPKGSLKLSCAASGFTFNTYAMNWVRQAPGKGLEWVARIRSKSNNYATYYADSVKDRFTISRDDSQSMLYLQMNNLKTEDTAMYYCVRGREAYYRYDGGYYAMDYWGQGTSVTVSS VL: DIVMTQAAPSVPVTPGESVSISCRSSKSLLHSNGNTYLYWFLQRPGQSPQLLIYRMSNLASGVPDRFSGSGSGTAFTLRISRVEAEDVGVYYCMQHLEYPFTFGSGTKLEIK | 0.191 nM and 0.029 µg/mL | 60 | 36 | 19 | 74 | 68 | 48 | 640000 % of hCCL1 (100 nM) | 0.03 µg/ml and 0.198 nM | 0.031 µg/ml and 0.21 nM | binds | binds | binds | binds | 90.6 | 22.7 | 0.83 µg/mL and 5.55 nM
anti-CCR8 mAb 1-4 (antibody, V domains shown, Murine hybridoma mAb) VH: EVQLVESGGGLVQPTGSLRLSCAASGFTFNAYAMNWVRQAPGKGLEWVARIRSKSNDYATYYGDSVKDRFTISRDDSQSMLYLQMNNLKTEDTAMYYCVRGREAYYRYDGGYYAMDYWGQGTSVTVSS VL: DIVMTQAAPSVSVTPGESVSISCTSSKSLLHSNGNTYLYWFLQRPGQSPQLLIYRMSNLASGVPDRFSGSGSGTAFTLRISRVEAEDVGVYYCMQHREYPFTFGSGTKLEIK | 0.034 µg/mL and 0.227 nM | 72 | 49 | 28 | 75 | 36 | 22 | 313000 % of hCCL1 (100 nM) | 0.034 µg/ml and 0.225 nM | 0.065 µg/ml and 0.434 nM | binds | binds | binds | binds | 66.8 | 5.06 | 1.93 µg/mL and 12.9 nM
anti-CCR8 mAb 1-1 (antibody, V domains shown, Murine hybridoma mAb) VH: EVQLLESGGGLVQPKGSLKLSCAASGFTFNPYAMNWVRQAPGRGLEWVARIRSKSNNYATYYADSVKDRFTISRDDSQDMLYLQMNNLKTEDTAMYYCVRGREAYYRYDGDYYAMDYWGQGTSVTVSS VL: DIVMTQAAPSVPVTPGESVSISCRSSKSLLHSNGNTYLYWFLQRPGQSPQLLIYRMSNLASGVPDRFSGSGSGTAFTLRISRVEAEDVGVYYCMQHLEYPFTFGSGTKLEIK | 0.023 µg/mL and 0.153 nM | 81 | 69 | 44 | 77 | 57 | 49 | 760000 % of hCCL1 (100 nM) | 0.021 µg/ml and 0.143 nM | 0.024 µg/ml and 0.163 nM | binds | binds | binds | binds | 72.8 | 6.32 | 1.02 µg/mL and 6.83 nM
anti-CCR8 mAb 1-11 (antibody, V domains shown, Murine hybridoma mAb) VH: QVQLQQPGAELVKPGASVKMSCKATGYTFTGYNMHWVKQTPGQGLEWIGAISPGKGDTSYNLKFKGKATLTTDKSSSTAYMQLSSLTSADSAVYYCARSGGTPFAYWGQGTLVTVSA VL: DVVMTQTPLSLPVSLGDQASISCRSSQSLVHSNGDTYLYWYLQKPGQSPKLLIYKVSNRFSGVPDRFSGSGSGTDFTLKINRVEAEDLGVYFCSQSTHVPYTFGGGTKLEIK | 0.129 µg/mL and 0.86 nM | – | – | – | 102 | 98 | 84 | 2880 % of hCCL1 (100 nM) | – | – | binds | binds | binds | binds | 76.2 | 8.37 | 0.72 µg/mL and 4.82 nM
anti-CCR8 mAb 1-15 (antibody, V domains shown, Murine hybridoma mAb) VH: EVQLQQSGPELVKPGASVKISCKTSGYTFTEYTMHWVKQSHGKSLEWIGGINPNNGDTNYNQKFMGKATLTVDKSSSTAYMELRSLTSEDSAVYYCVRRLLRRGAMDYWGQGTSVTVSS VL: DIVLTQSPASLAVSLGQRATISCRASENVEYYGTSLMQWFQQKPGQPPKLLIYAASNVDSGVPARFSGSGSGTDFSLNIHPVEEDDIAMYFCQQSRKVPWTFGGGTKLDIK | 0.019 µg/mL and 0.129 nM | 99 | 102 | 95 | 102 | 97 | 67 | 135000 % of hCCL1 (100 nM) | – | – | binds | binds | binds | binds | 73.4 | 6.52 | 0.75 µg/mL and 5.01 nM
